PMC3463842 (The EMBO Journal, 2012)

Target: ubiquitin^TAMRA (C-terminal TAMRA-labelled ubiquitin) (UniProt P0CG48 1-76, TAMRA label at the C-terminus)
Experiment: fluorescence polarisation

| Kd | Binder |
| --- | --- |
| 118 µM | HOIP^RBR-LDD (699–1072), as used in the FP assay (domain or fragment) CAVCGWALPHNRMQALTSCECTICPDCFRQHFTIALKEKHITDMVCPACGRPDLTDDTQLLSYFSTLDIQLRESLEPDAYALFHKKLTEGVLMRDPKFLWCAQCSFGFIYEREQLEATCPQCHQTFCVRCKRQWEEQHRGRSCEDFQNWKRMNDPEYQAQGLAMYLQENGIDCPKCKFSYALARGGCMHFHCTQCRHQFCSGCYNAFYAKNKCPEPNCRVKKSLHGHHPRDCLFYLRDWTALRLQKLLQDNNVMFNTEPPAGARAVPGGGCRVIEQKEVPNGLRDEACGKETPAGYAGLCQAHYKEYLVSLINAHSLDPATLYEVEELETATERYLHVRPQPLAGEDPPAYQARLLQKLTEEVPLGQSIPRRRK |
| 83 µM | HOIP^RBR-LDD C930A (domain or fragment) CAVCGWALPHNRMQALTSCECTICPDCFRQHFTIALKEKHITDMVCPACGRPDLTDDTQLLSYFSTLDIQLRESLEPDAYALFHKKLTEGVLMRDPKFLWCAQCSFGFIYEREQLEATCPQCHQTFCVRCKRQWEEQHRGRSCEDFQNWKRMNDPEYQAQGLAMYLQENGIDCPKCKFSYALARGGCMHFHCTQCRHQFCSGCYNAFYAKNKCPEPNCRVKKSLHGHHPRDALFYLRDWTALRLQKLLQDNNVMFNTEPPAGARAVPGGGCRVIEQKEVPNGLRDEACGKETPAGYAGLCQAHYKEYLVSLINAHSLDPATLYEVEELETATERYLHVRPQPLAGEDPPAYQARLLQKLTEEVPLGQSIPRRRK |
